B1: THAP1; numbered along this chain (parent)
chain: MVQSCSAYGCKNRYDKDKPVSFHKFPLTRPSLCKEWEAAVRRKNFKPTKYSSICSEHFTPDCFKRECNNKLLKENAVPTIFLCTEPHDKKEDLLEPQEQLPPPPLPPPVSQVDAAIGLLMPPLQTPVNLSVFCDHNYTVEDTMHQRKRIHQLEQQVEKLRKKLKTAQQRCRRQERQLEKLKEVVHFQKEKDDVSERGYVILPNDYFEIVEVPA

Variants of: B1
Experiment: THAP1 transcriptional activity (GFP+/GFP- enrichment relative to wild-type constructs) (ratio to WT); higher = more THAP1 activity (PSMB5 reporter activation)
Details: with PSMB5 promoter-GFP reporter
Procedure, shortened: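 Variants were counted by Illumina sequencing of genomic DNA amplicons from BFP+ cells sorted into GFP-bright and GFP-dim bins five days after lentiviral transduction, in duplicate at MOI ~0.3. The library changed each of residues 2–213 of human THAP1 to all 20 amino acids and was introduced into THAP1-knockout HEK-293T cells with mClover3 knocked in at endogenous PSMB5. Activity equals the replicate-mean bright/dim read fold change over the mean of wild-type synonymous constructs.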

Compared with MVQSCSAYGCKNRYDKDKPVSFHKFPLTRPSLCKEWEAAVRRKNFKPTKYSSICSEHFTPDCFKRECNNKLLKENAVPTIFRCTEPHDKKEDLLEPQEQLPPPPLPPPVSQVDAAIGLLMPPLQTPVNLSVFCDHNYTVEDTMHQRKRIHQLEQQVEKLRKKLKTAQQRCRRQERQLEKLKEVVHFQKEKDDVSERGYVILPNDYFEIVEVPA [L82R], MVQSCSAYGCKNRYDKDKPVSFHKFPLTRPSLCKEWEAAVRRKNFKPTKYSSICSEHFTPDCFKRECNNKLLKENAVPTIFMCTEPHDKKEDLLEPQEQLPPPPLPPPVSQVDAAIGLLMPPLQTPVNLSVFCDHNYTVEDTMHQRKRIHQLEQQVEKLRKKLKTAQQRCRRQERQLEKLKEVVHFQKEKDDVSERGYVILPNDYFEIVEVPA [L82M] is lower in THAP1 transcriptional activity: 0.825 for the first, 0.668 for the second.

Going from MVQSCSAYGCKNRYDKDKPVSFHKFPLTRPSLCKEWEAAVRRKNFKPTKYSSICSEHFTPDCFKRECNNKLLKENAVPTIFQCTEPHDKKEDLLEPQEQLPPPPLPPPVSQVDAAIGLLMPPLQTPVNLSVFCDHNYTVEDTMHQRKRIHQLEQQVEKLRKKLKTAQQRCRRQERQLEKLKEVVHFQKEKDDVSERGYVILPNDYFEIVEVPA [L82Q] to MVQSCSAYGCKNRYDKDKPVSFHKFPLTRPSLCKEWEAAVRRKNFKPTKYSSICSEHFTPDCFKRECNNKLLKENAVPTIFVCTEPHDKKEDLLEPQEQLPPPPLPPPVSQVDAAIGLLMPPLQTPVNLSVFCDHNYTVEDTMHQRKRIHQLEQQVEKLRKKLKTAQQRCRRQERQLEKLKEVVHFQKEKDDVSERGYVILPNDYFEIVEVPA [L82V], the THAP1 transcriptional activity rises from 1.59 to 1.71.

Going from MVQSCSAYGCKNRYDKDKPVSFHKFPLTRPSLCKEWEAAVRRKNFKPTKYSSICSEHFTPDCFKRECNNKLLKENAVPTIFKCTEPHDKKEDLLEPQEQLPPPPLPPPVSQVDAAIGLLMPPLQTPVNLSVFCDHNYTVEDTMHQRKRIHQLEQQVEKLRKKLKTAQQRCRRQERQLEKLKEVVHFQKEKDDVSERGYVILPNDYFEIVEVPA [L82K] to MVQSCSAYGCKNRYDKDKPVSFHKFPLTRPSLCKEWEAAVRRKNFKPTKYSSICSEHFTPDCFKRECNNKLLKENAVPTIFHCTEPHDKKEDLLEPQEQLPPPPLPPPVSQVDAAIGLLMPPLQTPVNLSVFCDHNYTVEDTMHQRKRIHQLEQQVEKLRKKLKTAQQRCRRQERQLEKLKEVVHFQKEKDDVSERGYVILPNDYFEIVEVPA [L82H], the THAP1 transcriptional activity rises from 0.792 to 1.27.

Compared with MVQSCSAYGCKNRYDKDKPVSFHKFPLTRPSLCKEWEAAVRRKNFKPTKYSSICSEHFTPDCFKRECNNKLLKENAVPTIFTCTEPHDKKEDLLEPQEQLPPPPLPPPVSQVDAAIGLLMPPLQTPVNLSVFCDHNYTVEDTMHQRKRIHQLEQQVEKLRKKLKTAQQRCRRQERQLEKLKEVVHFQKEKDDVSERGYVILPNDYFEIVEVPA [L82T], MVQSCSAYGCKNRYDKDKPVSFHKFPLTRPSLCKEWEAAVRRKNFKPTKYSSICSEHFTPDCFKRECNNKLLKENAVPTIFPCTEPHDKKEDLLEPQEQLPPPPLPPPVSQVDAAIGLLMPPLQTPVNLSVFCDHNYTVEDTMHQRKRIHQLEQQVEKLRKKLKTAQQRCRRQERQLEKLKEVVHFQKEKDDVSERGYVILPNDYFEIVEVPA [L82P] is higher in THAP1 transcriptional activity: 2.19 for the first, 2.38 for the second.

Going from MVQSCSAYGCKNRYDKDKPVSFHKFPLTRPSLCKEWEAAVRRKNFKPTKYSSICSEHFTPDCFKRECNNKLLKENAVPTIFWCTEPHDKKEDLLEPQEQLPPPPLPPPVSQVDAAIGLLMPPLQTPVNLSVFCDHNYTVEDTMHQRKRIHQLEQQVEKLRKKLKTAQQRCRRQERQLEKLKEVVHFQKEKDDVSERGYVILPNDYFEIVEVPA [L82W] to MVQSCSAYGCKNRYDKDKPVSFHKFPLTRPSLCKEWEAAVRRKNFKPTKYSSICSEHFTPDCFKRECNNKLLKENAVPTIFSCTEPHDKKEDLLEPQEQLPPPPLPPPVSQVDAAIGLLMPPLQTPVNLSVFCDHNYTVEDTMHQRKRIHQLEQQVEKLRKKLKTAQQRCRRQERQLEKLKEVVHFQKEKDDVSERGYVILPNDYFEIVEVPA [L82S], the THAP1 transcriptional activity falls from 2.23 to 0.94.

First: MVQSCSAYGCKNRYDKDKPVSFHKFPLTRPSLCKEWEAAVRRKNFKPTKYSSICSEHFTPDCFKRECNNKLLKENAVPTIFYCTEPHDKKEDLLEPQEQLPPPPLPPPVSQVDAAIGLLMPPLQTPVNLSVFCDHNYTVEDTMHQRKRIHQLEQQVEKLRKKLKTAQQRCRRQERQLEKLKEVVHFQKEKDDVSERGYVILPNDYFEIVEVPA [L82Y]
Second: MVQSCSAYGCKNRYDKDKPVSFHKFPLTRPSLCKEWEAAVRRKNFKPTKYSSICSEHFTPDCFKRECNNKLLKENAVPTIFNCTEPHDKKEDLLEPQEQLPPPPLPPPVSQVDAAIGLLMPPLQTPVNLSVFCDHNYTVEDTMHQRKRIHQLEQQVEKLRKKLKTAQQRCRRQERQLEKLKEVVHFQKEKDDVSERGYVILPNDYFEIVEVPA [L82N]
The THAP1 transcriptional activity of the first is lower: 1.46 for the first, 1.88 for the second.

First: MVQSCSAYGCKNRYDKDKPVSFHKFPLTRPSLCKEWEAAVRRKNFKPTKYSSICSEHFTPDCFKRECNNKLLKENAVPTIFLDTEPHDKKEDLLEPQEQLPPPPLPPPVSQVDAAIGLLMPPLQTPVNLSVFCDHNYTVEDTMHQRKRIHQLEQQVEKLRKKLKTAQQRCRRQERQLEKLKEVVHFQKEKDDVSERGYVILPNDYFEIVEVPA [C83D]
Second: MVQSCSAYGCKNRYDKDKPVSFHKFPLTRPSLCKEWEAAVRRKNFKPTKYSSICSEHFTPDCFKRECNNKLLKENAVPTIFLETEPHDKKEDLLEPQEQLPPPPLPPPVSQVDAAIGLLMPPLQTPVNLSVFCDHNYTVEDTMHQRKRIHQLEQQVEKLRKKLKTAQQRCRRQERQLEKLKEVVHFQKEKDDVSERGYVILPNDYFEIVEVPA [C83E]
The THAP1 transcriptional activity of the first is higher: 2.06 for the first, 0.913 for the second.

Source: the supplement of paper PMC11811203
